The results in this text go back to US12679878B2, “CRF2 receptor agonists and their use in therapy” (SANOFI, priority 2020, dated 2026).

This experiment has as its target human corticotropin-releasing factor 2α (CRF2 α receptor) (human), Q13324. The experiment in a line: cell-based or functional assay.

Starred links: 1 amine or outer side, 2 acyl side, 3 side chain; linkers in the order of their positions; H or OH if unused. Non-standard residues stand in square brackets, D forms with d. Groups on a side chain read outwards from the residue. No end group written: not given here. *: point of attachment. C18 diacid = O=C(O)CCCCCCCCCCCCCCCCC(=O)*; γGlu = O=C(O)[C@H](CCC(=O)[*:2])N[*:1]; AEEA = NCCOCCOCC(=O)O; Aib = CC(C)(N)C(=O)O

Sequence of human corticotropin-releasing factor 2α (CRF2 α receptor) (human), Q13324 (Q13324 20-411): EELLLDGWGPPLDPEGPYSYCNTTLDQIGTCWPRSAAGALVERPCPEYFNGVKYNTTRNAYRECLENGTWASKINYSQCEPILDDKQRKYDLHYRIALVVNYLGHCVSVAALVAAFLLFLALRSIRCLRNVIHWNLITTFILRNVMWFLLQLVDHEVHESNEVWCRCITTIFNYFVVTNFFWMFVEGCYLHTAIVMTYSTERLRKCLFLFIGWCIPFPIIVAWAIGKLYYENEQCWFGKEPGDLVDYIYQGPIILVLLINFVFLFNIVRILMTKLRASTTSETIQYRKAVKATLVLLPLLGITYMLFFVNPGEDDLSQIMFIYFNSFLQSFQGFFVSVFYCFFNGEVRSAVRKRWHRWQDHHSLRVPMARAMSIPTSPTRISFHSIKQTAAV

B1: SEQ ID NO: 76 (peptide)
peptide: IVLSLDVPIGLK([AEEA-AEEA-γGlu-C18 diacid])QILLEQERQKKQRQQAETN[Aib]QILAQV-NH2
modifications: N-terminus assumed
SMILES: CC[C@H](C)[C@H](N)C(=O)N[C@H](C(=O)N[C@@H](CC(C)C)C(=O)N[C@@H](CO)C(=O)N[C@@H](CC(C)C)C(=O)N[C@@H](CC(=O)O)C(=O)N[C@H](C(=O)N1CCC[C@H]1C(=O)N[C@H](C(=O)NCC(=O)N[C@@H](CC(C)C)C(=O)N[C@@H](CCCCNC(=O)COCCOCCNC(=O)COCCOCCNC(=O)CC[C@H](NC(=O)CCCCCCCCCCCCCCCCC(=O)O)C(=O)O)C(=O)N[C@@H](CCC(N)=O)C(=O)N[C@H](C(=O)N[C@@H](CC(C)C)C(=O)N[C@@H](CC(C)C)C(=O)N[C@@H](CCC(=O)O)C(=O)N[C@@H](CCC(N)=O)C(=O)N[C@@H](CCC(=O)O)C(=O)N[C@@H](CCCNC(=N)N)C(=O)N[C@@H](CCC(N)=O)C(=O)N[C@@H](CCCCN)C(=O)N[C@@H](CCCCN)C(=O)N[C@@H](CCC(N)=O)C(=O)N[C@@H](CCCNC(=N)N)C(=O)N[C@@H](CCC(N)=O)C(=O)N[C@@H](CCC(N)=O)C(=O)N[C@@H](C)C(=O)N[C@@H](CCC(=O)O)C(=O)N[C@H](C(=O)N[C@@H](CC(N)=O)C(=O)NC(C)(C)C(=O)N[C@@H](CCC(N)=O)C(=O)N[C@H](C(=O)N[C@@H](CC(C)C)C(=O)N[C@@H](C)C(=O)N[C@@H](CCC(N)=O)C(=O)N[C@H](C(N)=O)C(C)C)[C@@H](C)CC)[C@@H](C)O)[C@@H](C)CC)[C@@H](C)CC)C(C)C)C(C)C
Turning to B1, the EC50 [nM], 0% HSA was found to be 13.4 nM.

B2: SEQ ID NO: 75 (peptide)
peptide: IVLSLDVPIKLK([AEEA-AEEA-γGlu-C18 diacid])QILLKQERQKKQRQQAETN[Aib]QILAQV-NH2
modifications: N-terminus assumed
SMILES: CC[C@H](C)[C@H](N)C(=O)N[C@H](C(=O)N[C@@H](CC(C)C)C(=O)N[C@@H](CO)C(=O)N[C@@H](CC(C)C)C(=O)N[C@@H](CC(=O)O)C(=O)N[C@H](C(=O)N1CCC[C@H]1C(=O)N[C@H](C(=O)N[C@@H](CCCCN)C(=O)N[C@@H](CC(C)C)C(=O)N[C@@H](CCCCNC(=O)COCCOCCNC(=O)COCCOCCNC(=O)CC[C@H](NC(=O)CCCCCCCCCCCCCCCCC(=O)O)C(=O)O)C(=O)N[C@@H](CCC(N)=O)C(=O)N[C@H](C(=O)N[C@@H](CC(C)C)C(=O)N[C@@H](CC(C)C)C(=O)N[C@@H](CCCCN)C(=O)N[C@@H](CCC(N)=O)C(=O)N[C@@H](CCC(=O)O)C(=O)N[C@@H](CCCNC(=N)N)C(=O)N[C@@H](CCC(N)=O)C(=O)N[C@@H](CCCCN)C(=O)N[C@@H](CCCCN)C(=O)N[C@@H](CCC(N)=O)C(=O)N[C@@H](CCCNC(=N)N)C(=O)N[C@@H](CCC(N)=O)C(=O)N[C@@H](CCC(N)=O)C(=O)N[C@@H](C)C(=O)N[C@@H](CCC(=O)O)C(=O)N[C@H](C(=O)N[C@@H](CC(N)=O)C(=O)NC(C)(C)C(=O)N[C@@H](CCC(N)=O)C(=O)N[C@H](C(=O)N[C@@H](CC(C)C)C(=O)N[C@@H](C)C(=O)N[C@@H](CCC(N)=O)C(=O)N[C@H](C(N)=O)C(C)C)[C@@H](C)CC)[C@@H](C)O)[C@@H](C)CC)[C@@H](C)CC)C(C)C)C(C)C
As to B2, the EC50 [nM], 0% HSA stood at 0.48 nM.

B3: SEQ ID NO: 74 (peptide)
peptide: IVLSLDVPIKLK([AEEA-AEEA-γGlu-C18 diacid])QILLEQERQKKQREQAETN[Aib]QILERV-NH2
modifications: N-terminus assumed
SMILES: CC[C@H](C)[C@H](N)C(=O)N[C@H](C(=O)N[C@@H](CC(C)C)C(=O)N[C@@H](CO)C(=O)N[C@@H](CC(C)C)C(=O)N[C@@H](CC(=O)O)C(=O)N[C@H](C(=O)N1CCC[C@H]1C(=O)N[C@H](C(=O)N[C@@H](CCCCN)C(=O)N[C@@H](CC(C)C)C(=O)N[C@@H](CCCCNC(=O)COCCOCCNC(=O)COCCOCCNC(=O)CC[C@H](NC(=O)CCCCCCCCCCCCCCCCC(=O)O)C(=O)O)C(=O)N[C@@H](CCC(N)=O)C(=O)N[C@H](C(=O)N[C@@H](CC(C)C)C(=O)N[C@@H](CC(C)C)C(=O)N[C@@H](CCC(=O)O)C(=O)N[C@@H](CCC(N)=O)C(=O)N[C@@H](CCC(=O)O)C(=O)N[C@@H](CCCNC(=N)N)C(=O)N[C@@H](CCC(N)=O)C(=O)N[C@@H](CCCCN)C(=O)N[C@@H](CCCCN)C(=O)N[C@@H](CCC(N)=O)C(=O)N[C@@H](CCCNC(=N)N)C(=O)N[C@@H](CCC(=O)O)C(=O)N[C@@H](CCC(N)=O)C(=O)N[C@@H](C)C(=O)N[C@@H](CCC(=O)O)C(=O)N[C@H](C(=O)N[C@@H](CC(N)=O)C(=O)NC(C)(C)C(=O)N[C@@H](CCC(N)=O)C(=O)N[C@H](C(=O)N[C@@H](CC(C)C)C(=O)N[C@@H](CCC(=O)O)C(=O)N[C@@H](CCCNC(=N)N)C(=O)N[C@H](C(N)=O)C(C)C)[C@@H](C)CC)[C@@H](C)O)[C@@H](C)CC)[C@@H](C)CC)C(C)C)C(C)C
In the case of B3, the EC50 [nM], 0% HSA worked out at 2.12 nM.

B4: SEQ ID NO: 73 (peptide)
peptide: IVLSLDVPIKLK([AEEA-AEEA-γGlu-C18 diacid])QILLEQERQKKQRQKAETN[Aib]QILAQV-NH2
modifications: N-terminus assumed
SMILES: CC[C@H](C)[C@H](N)C(=O)N[C@H](C(=O)N[C@@H](CC(C)C)C(=O)N[C@@H](CO)C(=O)N[C@@H](CC(C)C)C(=O)N[C@@H](CC(=O)O)C(=O)N[C@H](C(=O)N1CCC[C@H]1C(=O)N[C@H](C(=O)N[C@@H](CCCCN)C(=O)N[C@@H](CC(C)C)C(=O)N[C@@H](CCCCNC(=O)COCCOCCNC(=O)COCCOCCNC(=O)CC[C@H](NC(=O)CCCCCCCCCCCCCCCCC(=O)O)C(=O)O)C(=O)N[C@@H](CCC(N)=O)C(=O)N[C@H](C(=O)N[C@@H](CC(C)C)C(=O)N[C@@H](CC(C)C)C(=O)N[C@@H](CCC(=O)O)C(=O)N[C@@H](CCC(N)=O)C(=O)N[C@@H](CCC(=O)O)C(=O)N[C@@H](CCCNC(=N)N)C(=O)N[C@@H](CCC(N)=O)C(=O)N[C@@H](CCCCN)C(=O)N[C@@H](CCCCN)C(=O)N[C@@H](CCC(N)=O)C(=O)N[C@@H](CCCNC(=N)N)C(=O)N[C@@H](CCC(N)=O)C(=O)N[C@@H](CCCCN)C(=O)N[C@@H](C)C(=O)N[C@@H](CCC(=O)O)C(=O)N[C@H](C(=O)N[C@@H](CC(N)=O)C(=O)NC(C)(C)C(=O)N[C@@H](CCC(N)=O)C(=O)N[C@H](C(=O)N[C@@H](CC(C)C)C(=O)N[C@@H](C)C(=O)N[C@@H](CCC(N)=O)C(=O)N[C@H](C(N)=O)C(C)C)[C@@H](C)CC)[C@@H](C)O)[C@@H](C)CC)[C@@H](C)CC)C(C)C)C(C)C
Molecule B4 came in with an EC50 [nM], 0% HSA of 2.6 nM.
